Laboratory results published in PMC5263247, “Lipid Signaling via Pkh1/2 Regulates Fungal CO2 Sensing through the Kinase Sch9” (mBio, 2017).

Molecular target: T1, ScSch9-His (S. cerevisiae, UniProt P11792 1-824)
T1 construct: Sch9 kinase of S. cerevisiae; SCH9 synthesized with a C-terminal 6xHis tag and cloned into the E. coli expression vector p41; also called recombinant ScSch9-His; source: E. coli BL21(DE3), purified (IMAC, Ni-NTA Sepharose); not shown: 6xHis, C-terminal, kept
T1 sequence (looked up): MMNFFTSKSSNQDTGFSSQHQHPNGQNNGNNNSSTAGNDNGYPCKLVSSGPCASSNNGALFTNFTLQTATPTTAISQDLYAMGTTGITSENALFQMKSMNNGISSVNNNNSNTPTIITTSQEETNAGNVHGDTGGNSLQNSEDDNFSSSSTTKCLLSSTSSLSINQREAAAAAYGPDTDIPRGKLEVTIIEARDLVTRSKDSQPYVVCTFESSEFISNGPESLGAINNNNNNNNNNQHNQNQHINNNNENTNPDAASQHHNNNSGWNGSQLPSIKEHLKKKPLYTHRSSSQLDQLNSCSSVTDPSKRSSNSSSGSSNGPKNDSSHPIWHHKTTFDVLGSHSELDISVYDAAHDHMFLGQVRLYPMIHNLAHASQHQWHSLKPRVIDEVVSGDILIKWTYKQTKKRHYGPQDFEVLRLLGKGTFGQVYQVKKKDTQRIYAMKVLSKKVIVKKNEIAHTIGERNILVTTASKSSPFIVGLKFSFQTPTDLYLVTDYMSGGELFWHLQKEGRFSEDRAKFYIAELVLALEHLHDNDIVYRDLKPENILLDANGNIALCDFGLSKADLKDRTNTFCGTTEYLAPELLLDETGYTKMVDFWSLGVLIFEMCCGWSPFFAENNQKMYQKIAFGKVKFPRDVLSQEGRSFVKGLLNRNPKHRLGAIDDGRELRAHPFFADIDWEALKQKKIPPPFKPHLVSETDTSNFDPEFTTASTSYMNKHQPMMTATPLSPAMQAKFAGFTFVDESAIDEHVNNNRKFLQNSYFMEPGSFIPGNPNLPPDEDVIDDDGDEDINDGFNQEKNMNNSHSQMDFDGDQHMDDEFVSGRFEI
Assay: co-IP; endogenous ScCst6 precipitated from S. cerevisiae WT lysate with rabbit anti-Cst6 antibody, bound to protein-G Sepharose beads, washed (IP buffer plus 500 mM NaCl), then incubated with 20 µg recombinant ScSch9-His for 3 h at 4°C; extensive washing; Western blot (anti-ScCst6, anti-6xHis)
Settings: both partners purified

B1: ScCst6 (endogenous) (natural protein, UniProt P40535 1-587, looked up)
chain: MFTGQEYHSVDSNSNKQKDNNKRGIDDTSKILNNKIPHSVSDTSAAATTTSTMNNSALSRSLDPTDINYSTNMAGVVDQIHDYTTSNRNSLTPQYSIAAGNVNSHDRVVKPSANSNYQQAAYLRQQQQQDQRQQSPSMKTEEESQLYGDILMNSGVVQDMHQNLATHTNLSQLSSTRKSAPNDSTTAPTNASNIANTASVNKQMYFMNMNMNNNPHALNDPSILETLSPFFQPFGVDVAHLPMTNPPIFQSSLPGCDEPIRRRRISISNGQISQLGEDIETLENLHNTQPPPMPNFHNYNGLSQTRNVSNKPVFNQAVPVSSIPQYNAKKVINPTKDSALGDQSVIYSKSQQRNFVNAPSKNTPAESISDLEGMTTFAPTTGGENRGKSALRESHSNPSFTPKSQGSHLNLAANTQGNPIPGTTAWKRARLLERNRIAASKCRQRKKVAQLQLQKEFNEIKDENRILLKKLNYYEKLISKFKKFSKIHLREHEKLNKDSDNNVNGTNSSNKNESMTVDSLKIIEELLMIDSDVTEVDKDTGKIIAIKHEPYSQRFGSDTDDDDIDLKPVEGGKDPDNQSLPNSEKIK
notes: Transcription factor Cst6 (ATF/CREB family) of S. cerevisiae, endogenous protein of the wild type (BY4741); also called endogenous ScCst6; source: endogenous, S. cerevisiae WT lysate, immunopurified with anti-Cst6 antibody on protein-G Sepharose beads
binding result: binds
